Laboratory results from patent US20230287338A1 (MINERVA BIOTECHNOLOGIES, published 2023).
Groups on a side chain read outwards from the residue. No end group written: not given here. maleimide = maleimide group on the activated BSA carrier, coupling the C-terminal Cys

Tests used:
[1] = target: T1, NME7-AB (recombinant human NME7 comprising essentially the NDPK A and B domains, expressed in E. coli) (human, UniProt Q9Y5B8 92-376); assay: ELISA, carrier-coupled PSMGFR-Cys on plate
T1 construct: Monomeric; purified over NTA-Ni and by size exclusion; the purification described uses Ni-NTA; also called recombinant NME7; NME7 (NME7-AB construct); not shown: a Strep Tag II version was al
T1 sequence: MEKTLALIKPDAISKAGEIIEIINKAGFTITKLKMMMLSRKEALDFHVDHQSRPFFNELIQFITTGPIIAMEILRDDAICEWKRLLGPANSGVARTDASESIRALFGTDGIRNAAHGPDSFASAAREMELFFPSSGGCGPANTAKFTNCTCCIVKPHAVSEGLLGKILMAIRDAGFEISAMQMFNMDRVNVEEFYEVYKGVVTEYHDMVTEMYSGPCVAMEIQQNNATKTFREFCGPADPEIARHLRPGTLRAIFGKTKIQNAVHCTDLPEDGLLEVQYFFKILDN
Description: (§1) The PSMGFR peptide bearing a C-terminal Cysteine (PSMGFR-Cys) was covalently coupled to BSA using Inject Maleimide activated BSA kit (Thermo Fisher). PSMGFR-Cys coupled BSA was diluted to 10 ug/mL in 0.1M carbonate/bicarbonate buffer pH 9.6 and 50 uL was added to each well of a 96 well plate. After overnight incubation at 4° C., the plate was wash twice with PBS-T and a 3% BSA solution was added to block remaining binding site on the well. After 1 h at RT the plate was washed twice with PBS-T and NME7, diluted in PBS-T+1% BSA, was added at different concentrations. After 1 h at RT the plate was washed 3× with PBS-T and anti-NM23-H7 (B-9, Santa Cruz Biotechnology), diluted in PBS-T+1% BSA, was added at 1/500 dilution. After 1 h at RT the plate was washed 3× with PBS-T and goat anti mouse-HRP, diluted in PBS-T+1% BSA, was added at 1/3333 dilution. After 1 h at RT the plate was washed 3× with PBS-T and binding of NME7 was measured at 415 nm using a ABTS solution (Pierce).

[2] = target: T1, NME7-AB (recombinant human NME7 …); assay: sandwich ELISA, NME7-AB held on plate-bound PSMGFR, detection with HRP labeled anti-His-tag antibody
Description: as §1, with “After 1 h at RT the plate was washed 3× with PBS-T and goat anti mouse-HRP, diluted in PBS-T+1% BSA, was added at 1/3333 dilution.” left out, “(Pierce). […]” for “(Pierce).”
(§2) After 1 h at RT the plate was washed 3× with PBS-T and HisTagged PSMGFR peptide (PSMGFR-His) or biotinylated PSMGFR peptide (PSMGFR-biotin), diluted in PBS-T+1% BSA, was added at different concentration. […] After 1 h at RT the plate was washed 3× with PBS-T and binding of PSMGFR peptide to NME7 already bound to another PSMGFR peptide (which could not signal by anti-His antibody or by streptavidin) coupled BSA was measured at 415 nm using a ABTS solution (Pierce).

[3] = target: T1, NME7-AB (recombinant human NME7 …); assay: sandwich ELISA, NME7-AB held on plate-bound PSMGFR, detection with streptavidin
Description: as §1, with “After 1 h at RT the plate was washed 3× with PBS-T and goat anti mouse-HRP, diluted in PBS-T+1% BSA, was added at 1/3333 dilution.” left out, “(Pierce). […]” for “(Pierce).”
as §2

[4] = target: T1, NME7-AB (recombinant human NME7 …); assay: gold nanoparticle aggregation assay
Description: Gold nanoparticles of a diameter of 30.0 nm were coated with an NTA-SAM surface according to Thompson et al. (ACS Appl. Mater. Interfaces, 2011, 3 (8), pp 2979-2987). The NTA-SAM coated gold nanoparticles were then activated with an equal volume of 180 uM NiSO₄, incubated for 10 min at room temperature, washed, and resuspended in a 10 mM phosphate buffer (pH 7.4). The gold nanoparticles were then loaded with PSMGFR N-10 peptide ([…]-HHHHHH (SEQ ID NO:112)) at 0.5 uM final concentration, and incubated at room temperature for 10 min Recombinant NME7-AB protein expressed and purified from E. coli was added free in solution at the concentrations indicated. When particle-immobilized proteins bind to each other, or simultaneously bind to two different peptides on two different particles, the particle solution color changes from pink/red to purple/blue. If the protein added free in solution causes particle aggregation, it is strong evidence that the free protein dimerizes the cognate peptide, since binding to a single peptide would not induce two or more particles to be brought into close proximity to each other.
The NME7-AB is added free in solution at the concentrations indicated. Solution color change from pink to purple/blue from particle aggregation indicates binding between the MUC* peptide on the particles and NME7 free in solution. […]

B1: PSMGFR peptide bearing a C-terminal Cysteine (PSMGFR-Cys) coupled to BSA (peptide)
peptide: GTINVHDVETQFNQYKTEAASRYNLTISDVSVSDVPFPFSAQSGAC([maleimide-BSA])
modifications: not fully specified
notes: Coated on the ELISA plate; also called PSMGFR-Cys coupled BSA; first MUC1* peptide of the sandwich ELISA
binding result [1]: binds

B2: histidine-tagged MUC1* extra cellular domain peptide (His-tagged PSMGFR sequence) (peptide)
peptide: GTINVHDVETQFNQYKTEAASRYNLTISDVSVSDVPFPFSAQSGAHHHHHH
notes: also called PSMGFR-His; HisTagged PSMGFR peptide
binding result [2]: binds

B3: biotinylated PSMGFR peptide (PSMGFR-biotin) (peptide)
peptide: GTINVHDVETQFNQYKTEAASRYNLTISDVSVSDVPFPFSAQSGA
modifications: also: biotinylated (position not given here)
notes: also called second MUC1* peptide with biotin
binding result [3]: binds

B4: PSMGFR N-10 peptide (His-tagged) (peptide)
peptide: QFNQYKTEAASRYNLTISDVSVSDVPFPFSAQSGAHHHHHH
notes: loaded on NTA-Ni-SAM coated gold nanoparticles; also called N-10 PSMGFR peptide; MUC1* peptide on NTA-Ni-SAM nanoparticles
binding result [4]: binds
